The results in this text go back to patent US20240209076A1 (KODIAK SCIENCES, published 2024).

B1: anti-IL-6 Fab, heavy chain V48L (Fab, V domains shown)
VH: EVQLVESGGGLVQPGGSLRLSCAASGFTFSPFAMSWVRQAPGKGLEWLAKISPGGSWTYYSDTVTGRFTFSLDTSKSTAYLQMNSLRAEDTAVYYCARQLWGYYALDIWGQGTLVTVSS
VL: DIQLTQSPSSLSASVGDRVTITCSASISVSYMYWYQQKPGKAPKLLIYDMSNLASGVPSRFSGSGSGTDFTLTISSLQPEDFATYYCMQWSGYPYTFGQGTKVEIK
notes: see m39
B2: anti-IL-6 Fab, light chain L46V (Fab, V domains shown)
VH: EVQLVESGGGLVQPGGSLRLSCAASGFTFSPFAMSWVRQAPGKGLEWVAKISPGGSWTYYSDTVTGRFTFSLDTSKSTAYLQMNSLRAEDTAVYYCARQLWGYYALDIWGQGTLVTVSS
VL: DIQLTQSPSSLSASVGDRVTITCSASISVSYMYWYQQKPGKAPKLVIYDMSNLASGVPSRFSGSGSGTDFTLTISSLQPEDFATYYCMQWSGYPYTFGQGTKVEIK
notes: see m39
B3: anti-IL-6 Fab, heavy chain V64F (Fab, V domains shown)
VH: EVQLVESGGGLVQPGGSLRLSCAASGFTFSPFAMSWVRQAPGKGLEWVAKISPGGSWTYYSDTFTGRFTFSLDTSKSTAYLQMNSLRAEDTAVYYCARQLWGYYALDIWGQGTLVTVSS
VL: DIQLTQSPSSLSASVGDRVTITCSASISVSYMYWYQQKPGKAPKLLIYDMSNLASGVPSRFSGSGSGTDFTLTISSLQPEDFATYYCMQWSGYPYTFGQGTKVEIK
notes: see m39
B4: anti-IL-6 Fab, light chain M32V (Fab, V domains shown)
VH: EVQLVESGGGLVQPGGSLRLSCAASGFTFSPFAMSWVRQAPGKGLEWVAKISPGGSWTYYSDTVTGRFTFSLDTSKSTAYLQMNSLRAEDTAVYYCARQLWGYYALDIWGQGTLVTVSS
VL: DIQLTQSPSSLSASVGDRVTITCSASISVSYVYWYQQKPGKAPKLLIYDMSNLASGVPSRFSGSGSGTDFTLTISSLQPEDFATYYCMQWSGYPYTFGQGTKVEIK
notes: see m39
B5: anti-IL-6 Fab, light chain I27W (Fab, V domains shown)
VH: EVQLVESGGGLVQPGGSLRLSCAASGFTFSPFAMSWVRQAPGKGLEWVAKISPGGSWTYYSDTVTGRFTFSLDTSKSTAYLQMNSLRAEDTAVYYCARQLWGYYALDIWGQGTLVTVSS
VL: DIQLTQSPSSLSASVGDRVTITCSASWSVSYMYWYQQKPGKAPKLLIYDMSNLASGVPSRFSGSGSGTDFTLTISSLQPEDFATYYCMQWSGYPYTFGQGTKVEIK
notes: see m39
B6: anti-IL-6 Fab, light chain A25S (Fab, V domains shown)
VH: EVQLVESGGGLVQPGGSLRLSCAASGFTFSPFAMSWVRQAPGKGLEWVAKISPGGSWTYYSDTVTGRFTFSLDTSKSTAYLQMNSLRAEDTAVYYCARQLWGYYALDIWGQGTLVTVSS
VL: DIQLTQSPSSLSASVGDRVTITCSSSISVSYMYWYQQKPGKAPKLLIYDMSNLASGVPSRFSGSGSGTDFTLTISSLQPEDFATYYCMQWSGYPYTFGQGTKVEIK
notes: see m39
B7: anti-IL-6 Fab, light chain I47V (Fab, V domains shown)
VH: EVQLVESGGGLVQPGGSLRLSCAASGFTFSPFAMSWVRQAPGKGLEWVAKISPGGSWTYYSDTVTGRFTFSLDTSKSTAYLQMNSLRAEDTAVYYCARQLWGYYALDIWGQGTLVTVSS
VL: DIQLTQSPSSLSASVGDRVTITCSASISVSYMYWYQQKPGKAPKLLVYDMSNLASGVPSRFSGSGSGTDFTLTISSLQPEDFATYYCMQWSGYPYTFGQGTKVEIK
notes: see m39
B8: anti-IL-6 Fab, light chain D49E (Fab, V domains shown)
VH: EVQLVESGGGLVQPGGSLRLSCAASGFTFSPFAMSWVRQAPGKGLEWVAKISPGGSWTYYSDTVTGRFTFSLDTSKSTAYLQMNSLRAEDTAVYYCARQLWGYYALDIWGQGTLVTVSS
VL: DIQLTQSPSSLSASVGDRVTITCSASISVSYMYWYQQKPGKAPKLLIYEMSNLASGVPSRFSGSGSGTDFTLTISSLQPEDFATYYCMQWSGYPYTFGQGTKVEIK
notes: see m39
B9: anti-IL-6 Fab, light chain L53H (Fab, V domains shown)
VH: EVQLVESGGGLVQPGGSLRLSCAASGFTFSPFAMSWVRQAPGKGLEWVAKISPGGSWTYYSDTVTGRFTFSLDTSKSTAYLQMNSLRAEDTAVYYCARQLWGYYALDIWGQGTLVTVSS
VL: DIQLTQSPSSLSASVGDRVTITCSASISVSYMYWYQQKPGKAPKLLIYDMSNHASGVPSRFSGSGSGTDFTLTISSLQPEDFATYYCMQWSGYPYTFGQGTKVEIK
notes: see m39
B10: anti-IL-6 Fab, light chain A54G (Fab, V domains shown)
VH: EVQLVESGGGLVQPGGSLRLSCAASGFTFSPFAMSWVRQAPGKGLEWVAKISPGGSWTYYSDTVTGRFTFSLDTSKSTAYLQMNSLRAEDTAVYYCARQLWGYYALDIWGQGTLVTVSS
VL: DIQLTQSPSSLSASVGDRVTITCSASISVSYMYWYQQKPGKAPKLLIYDMSNLGSGVPSRFSGSGSGTDFTLTISSLQPEDFATYYCMQWSGYPYTFGQGTKVEIK
notes: see m39
B11: anti-IL-6 Fab, heavy chain W57F (Fab, V domains shown)
VH: EVQLVESGGGLVQPGGSLRLSCAASGFTFSPFAMSWVRQAPGKGLEWVAKISPGGSFTYYSDTVTGRFTFSLDTSKSTAYLQMNSLRAEDTAVYYCARQLWGYYALDIWGQGTLVTVSS
VL: DIQLTQSPSSLSASVGDRVTITCSASISVSYMYWYQQKPGKAPKLLIYDMSNLASGVPSRFSGSGSGTDFTLTISSLQPEDFATYYCMQWSGYPYTFGQGTKVEIK
notes: see m39
B12: anti-IL-6 Fab, heavy chain V48Q (Fab, V domains shown)
VH: EVQLVESGGGLVQPGGSLRLSCAASGFTFSPFAMSWVRQAPGKGLEWQAKISPGGSWTYYSDTVTGRFTFSLDTSKSTAYLQMNSLRAEDTAVYYCARQLWGYYALDIWGQGTLVTVSS
VL: DIQLTQSPSSLSASVGDRVTITCSASISVSYMYWYQQKPGKAPKLLIYDMSNLASGVPSRFSGSGSGTDFTLTISSLQPEDFATYYCMQWSGYPYTFGQGTKVEIK
notes: see m39
B13: anti-IL-6 Fab, light chain A25T (Fab, V domains shown)
VH: EVQLVESGGGLVQPGGSLRLSCAASGFTFSPFAMSWVRQAPGKGLEWVAKISPGGSWTYYSDTVTGRFTFSLDTSKSTAYLQMNSLRAEDTAVYYCARQLWGYYALDIWGQGTLVTVSS
VL: DIQLTQSPSSLSASVGDRVTITCSTSISVSYMYWYQQKPGKAPKLLIYDMSNLASGVPSRFSGSGSGTDFTLTISSLQPEDFATYYCMQWSGYPYTFGQGTKVEIK
notes: see m39
B14: anti-IL-6 Fab, light chain A54L (Fab, V domains shown)
VH: EVQLVESGGGLVQPGGSLRLSCAASGFTFSPFAMSWVRQAPGKGLEWVAKISPGGSWTYYSDTVTGRFTFSLDTSKSTAYLQMNSLRAEDTAVYYCARQLWGYYALDIWGQGTLVTVSS
VL: DIQLTQSPSSLSASVGDRVTITCSASISVSYMYWYQQKPGKAPKLLIYDMSNLLSGVPSRFSGSGSGTDFTLTISSLQPEDFATYYCMQWSGYPYTFGQGTKVEIK
notes: see m39
B15: anti-IL-6 Fab, light chain L53R (Fab, V domains shown)
VH: EVQLVESGGGLVQPGGSLRLSCAASGFTFSPFAMSWVRQAPGKGLEWVAKISPGGSWTYYSDTVTGRFTFSLDTSKSTAYLQMNSLRAEDTAVYYCARQLWGYYALDIWGQGTLVTVSS
VL: DIQLTQSPSSLSASVGDRVTITCSASISVSYMYWYQQKPGKAPKLLIYDMSNRASGVPSRFSGSGSGTDFTLTISSLQPEDFATYYCMQWSGYPYTFGQGTKVEIK
notes: see m39
B16: anti-IL-6 Fab, light chain M50D (Fab, V domains shown)
VH: EVQLVESGGGLVQPGGSLRLSCAASGFTFSPFAMSWVRQAPGKGLEWVAKISPGGSWTYYSDTVTGRFTFSLDTSKSTAYLQMNSLRAEDTAVYYCARQLWGYYALDIWGQGTLVTVSS
VL: DIQLTQSPSSLSASVGDRVTITCSASISVSYMYWYQQKPGKAPKLLIYDDSNLASGVPSRFSGSGSGTDFTLTISSLQPEDFATYYCMQWSGYPYTFGQGTKVEIK
notes: see m39
B17: anti-IL-6 Fab, light chain L53W (Fab, V domains shown)
VH: EVQLVESGGGLVQPGGSLRLSCAASGFTFSPFAMSWVRQAPGKGLEWVAKISPGGSWTYYSDTVTGRFTFSLDTSKSTAYLQMNSLRAEDTAVYYCARQLWGYYALDIWGQGTLVTVSS
VL: DIQLTQSPSSLSASVGDRVTITCSASISVSYMYWYQQKPGKAPKLLIYDMSNWASGVPSRFSGSGSGTDFTLTISSLQPEDFATYYCMQWSGYPYTFGQGTKVEIK
notes: see m39
B18: anti-IL-6 Fab, light chain M32L (Fab, V domains shown)
VH: EVQLVESGGGLVQPGGSLRLSCAASGFTFSPFAMSWVRQAPGKGLEWVAKISPGGSWTYYSDTVTGRFTFSLDTSKSTAYLQMNSLRAEDTAVYYCARQLWGYYALDIWGQGTLVTVSS
VL: DIQLTQSPSSLSASVGDRVTITCSASISVSYLYWYQQKPGKAPKLLIYDMSNLASGVPSRFSGSGSGTDFTLTISSLQPEDFATYYCMQWSGYPYTFGQGTKVEIK
notes: see m39
B19: anti-IL-6 Fab, light chain I27F (Fab, V domains shown)
VH: EVQLVESGGGLVQPGGSLRLSCAASGFTFSPFAMSWVRQAPGKGLEWVAKISPGGSWTYYSDTVTGRFTFSLDTSKSTAYLQMNSLRAEDTAVYYCARQLWGYYALDIWGQGTLVTVSS
VL: DIQLTQSPSSLSASVGDRVTITCSASFSVSYMYWYQQKPGKAPKLLIYDMSNLASGVPSRFSGSGSGTDFTLTISSLQPEDFATYYCMQWSGYPYTFGQGTKVEIK
notes: see m39
B20: anti-IL-6 Fab, light chain A54Y (Fab, V domains shown)
VH: EVQLVESGGGLVQPGGSLRLSCAASGFTFSPFAMSWVRQAPGKGLEWVAKISPGGSWTYYSDTVTGRFTFSLDTSKSTAYLQMNSLRAEDTAVYYCARQLWGYYALDIWGQGTLVTVSS
VL: DIQLTQSPSSLSASVGDRVTITCSASISVSYMYWYQQKPGKAPKLLIYDMSNLYSGVPSRFSGSGSGTDFTLTISSLQPEDFATYYCMQWSGYPYTFGQGTKVEIK
notes: see m39
B21: anti-IL-6 Fab, light chain I27L (Fab, V domains shown)
VH: EVQLVESGGGLVQPGGSLRLSCAASGFTFSPFAMSWVRQAPGKGLEWVAKISPGGSWTYYSDTVTGRFTFSLDTSKSTAYLQMNSLRAEDTAVYYCARQLWGYYALDIWGQGTLVTVSS
VL: DIQLTQSPSSLSASVGDRVTITCSASLSVSYMYWYQQKPGKAPKLLIYDMSNLASGVPSRFSGSGSGTDFTLTISSLQPEDFATYYCMQWSGYPYTFGQGTKVEIK
notes: see m39
B22: anti-IL-6 Fab, heavy chain V64A (Fab, V domains shown)
VH: EVQLVESGGGLVQPGGSLRLSCAASGFTFSPFAMSWVRQAPGKGLEWVAKISPGGSWTYYSDTATGRFTFSLDTSKSTAYLQMNSLRAEDTAVYYCARQLWGYYALDIWGQGTLVTVSS
VL: DIQLTQSPSSLSASVGDRVTITCSASISVSYMYWYQQKPGKAPKLLIYDMSNLASGVPSRFSGSGSGTDFTLTISSLQPEDFATYYCMQWSGYPYTFGQGTKVEIK
notes: see m39

Sequence of recombinant human IL-6 (P05231 30-212 limits assumed): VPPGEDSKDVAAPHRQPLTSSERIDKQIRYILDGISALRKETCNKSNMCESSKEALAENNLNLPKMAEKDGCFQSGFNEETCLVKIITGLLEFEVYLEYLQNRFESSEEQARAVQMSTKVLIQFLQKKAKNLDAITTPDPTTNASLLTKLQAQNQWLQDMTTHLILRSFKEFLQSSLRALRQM

The test addresses recombinant human IL-6 (human, UniProt P05231 30-212). Nature of the test: SPR, IL-6 on CM5 chip, Fab lysate, 25 C. On the technique in general: SPR reads the build-up and loss of mass on a sensor chip optically.
By koff is commonly meant the rate constant with which the complex falls apart. With B1, the koff came out at 0.00517 s⁻¹.

As for B2, the koff came out at 0.00503 s⁻¹.

As for B3, the koff stood at 0.00684 s⁻¹.

For B4, the off-rate constant (koff) amounted to 0.00455 s⁻¹.

Consider B5, for which the koff came to 0.00569 s⁻¹.

For B6, the koff came out at 0.0048 s⁻¹.

For B7, the koff was found to be 0.00493 s⁻¹.

In the case of B8, the koff was 0.00619 s⁻¹.

Consider B9, for which the koff is 0.00498 s⁻¹.

As to B10, the koff was determined as 0.00498 s⁻¹.

In the case of B11, the koff is 0.00615 s⁻¹.

On to B12, for which the koff was 0.0034 s⁻¹.

In the case of B13, the koff was found to be 0.00479 s⁻¹.

With B14, the koff was found to be 0.00489 s⁻¹.

As for B15, the koff is 0.005 s⁻¹.

With B16, the koff was 0.00458 s⁻¹.

B17: the off-rate (koff) was found to be 0.00501 s⁻¹.

As for B18, the off-rate constant (koff) came out at 0.00492 s⁻¹.

On to B19, for which the koff was 0.00594 s⁻¹.

B20: the koff was determined as 0.00525 s⁻¹.

In the case of B21, the koff was 0.00593 s⁻¹.

As to B22, the koff was 0.00643 s⁻¹.
